B1: TPR t1 (parent)
chain: GACCAAUCUGCCCUCAGAGCUCGAGAACAUCUUCGGAUGCAGAGGAGGCAGGCUUCGGUGGCGCGAUAGCGCCAACGUCCUCAACCUCCAAUGCAUCCCACCACAUGAUGAUGCCUGAAGAGCCUUGGUUUUUUG

Variants of: B1
Experiment: polymerase ribozyme fitness, log enrichment relative to wild type (log ratio); higher = more active; in vitro selection for triplet polymerase activity
In short: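 Each subunit of a heterodimeric triplet polymerase ribozyme was mutagenized into a library by PCR, transcribed, and subjected to one round of in vitro selection, run in triplicate. Libraries were annealed with a biotinylated primer, the partner subunit and triplets, incubated frozen at −7 °C, and extended constructs were gel-excised, captured on streptavidin beads and recovered by RT-PCR. Input and output libraries were sequenced on Illumina, keeping genotypes with ≥10 input reads and ≥1 read per output. Fitness is log base 2 of genotype enrichment divided by wild-type enrichment, from inverse-variance-weighted replicate averages.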

Variant	polymerase ribozyme fitness (log ratio)
U78C U106G	-1.09
A75G G93C U116A	-4.1
U78G G128A	-1.19
C76A U106A	-1.33
A75U C99U G120U	-4.3
U78G C101G	-1.76
U78C A105G U112G	-3.99
C79U U130A	-1.2
U78C U96A	-0.969
C76A G127U	-2.17
C76A A105U C124A	-1.25
U78C C80A U116G G120C C123A	-1.86
U78C C85U U112A	0.233
C79A C124G	-0.697
U78C C89U G93U	-1.09
C76A U78A A91U U112G	-3.63
A75G G128A	-1.5
U78C C82U C123G G127C	-1.21
C76U U87A G110A U130G	-2.07
C76G U78A	0.247
U78C C85G U106A	-2.34

Variant	polymerase ribozyme fitness (log ratio)
C79U U129G	-1.35
U78A G110A	-1.32
C79G A103G	-5.92
C76A A90G	-0.633
U78C C102A G117C	-6.34
C79G U116A	-4.35
U78C C79U U106C	0.0469
C79U C88U C97U	-0.508
A75G U96A U106G	-3.41
A75U C97U	-0.863
G77C U96C G117A	-2.46
C76G C88G	-1.08
C76U U81C A100U G110A	-3.78
U78C C86G	-0.656
G77C G120C	0.526
C76U C102U	-2.21
C76U G120C	0.737
C76A C85G	-1.03
U78C C80A	-1.94
U78C C80G	-4.13
U78G C85G C88A A111G C114A	-6.16

Variant	polymerase ribozyme fitness (log ratio)
C79A G117U	-3.95
A75U G117C	-3.99
U78A U96C C104U	0.046
C79U A119U	-0.48
G77U C88U C115U U131A	-1.33
C76A C94U G117C	-5.54
G77C U131G	-0.172
U78C A95C	-1.06
U78A U133A	-0.443
C79G A90C U112A	-3.88
G77A C101A G117A	-3.06
U78A C101G	-2.13
U78G C102U G110A	-4.35
U78C A91G	-1.15
C79A C88G	-2.33
C79A C88A	-1.22
C76A C79U A90U A119C G120U	-1.56
U78C A118G	-0.499
U78C C115G U133A	-1.97
U78C G93A	-0.707
U78C A83U G107U	-5.42

Variant	polymerase ribozyme fitness (log ratio)
C79U A111U A121U	-3.62
C76G C89U	-0.321
G77C C124U G127A U129A	-0.0326
U78A A95U	-0.329
G77C U130G	-1.48
U78A A95U U112G U133A	0.61
C76U A83U	-0.0435
G77U C114G C124G	-1.15
C76U C80G U96C G120C	-4.89
U78C C104U	0.332
U78C C104A	-1.61
C76U U129G	-0.833
U78A C94A	-0.841
C76U A118G	-0.0957
C79A U92C G110C U125G	-5.23
U78C C114G	-2.46
U78C C114U	-2.28
C79A	-1.04
C79G	-1.54
C79U	-0.19

— the RNAGym collection of RNA variant scans (doi:10.1073/pnas.2313332121)
